The results in this text go back to patent publication US20240117038A1 (Ablynx, published 2024).

Changes are numbered by the printed parent chain. Names may count otherwise.

Sequences and labels used below:
T1: cynomolgus CX3CR1 (cynomolgus monkey (Macaca fascicularis), UniProt P49238 1-355 (human entry))
T1 construct: Overexpressed on CHO K1 cells; also called cyno CX3CR1; cyCX3CR1
T1 chain: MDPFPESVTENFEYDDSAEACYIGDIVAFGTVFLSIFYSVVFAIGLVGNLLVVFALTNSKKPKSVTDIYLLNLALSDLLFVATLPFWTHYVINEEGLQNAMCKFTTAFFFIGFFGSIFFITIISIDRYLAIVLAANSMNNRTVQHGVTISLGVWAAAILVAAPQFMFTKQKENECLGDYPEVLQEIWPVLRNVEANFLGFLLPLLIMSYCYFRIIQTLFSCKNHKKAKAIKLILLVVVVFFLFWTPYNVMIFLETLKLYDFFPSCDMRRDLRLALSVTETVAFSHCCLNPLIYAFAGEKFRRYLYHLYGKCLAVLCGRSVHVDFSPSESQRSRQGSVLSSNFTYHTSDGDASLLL

T2: human CX3CR1 (human, UniProt P49238 1-355)
T2 construct: Overexpressed on CHO K1, Ba/F3 or HEK293T cells; also called huCX3CR1; hCX3CR1
T2 sequence: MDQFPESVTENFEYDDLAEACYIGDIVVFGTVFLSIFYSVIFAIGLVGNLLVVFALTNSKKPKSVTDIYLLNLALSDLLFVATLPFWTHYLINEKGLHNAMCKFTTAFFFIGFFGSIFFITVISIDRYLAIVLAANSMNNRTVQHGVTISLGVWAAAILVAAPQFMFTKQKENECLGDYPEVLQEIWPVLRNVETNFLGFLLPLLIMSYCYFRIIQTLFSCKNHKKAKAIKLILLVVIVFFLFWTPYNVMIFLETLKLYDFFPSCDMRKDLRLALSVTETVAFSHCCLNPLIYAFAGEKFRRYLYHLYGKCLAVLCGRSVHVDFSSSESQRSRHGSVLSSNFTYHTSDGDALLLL

B1: A041600042 (VHH)
chain: DVQLVESGGGSVQPGGSLRLSCAASGSIFSSTAMAWYRQAPGKRRDLVAAINTVGVTKYADSVKGRFTISRDNAKNTVYLQMNSLRPEDTALYYCTSDPRRGWDTRYWGQGTLVTVSSGGGGSGGGGSGGGGSGGGGSEVQLVESGGGSVQPGGSLRLSCAASGSIFSSTAMAWYRQAPGKRRDLVAAINTVGVTKYADSVKGRFTISRDNAKNTVYLQMNSLRPEDTALYYCTSDPRRGWDTRYWGQGTLVTVSSGGGGSGGGGSGGGGSGGGGSEVQLVESGGGVVQPGGSLRLSCAASGFTFRSFGMSWVRQAPGKGPEWVSSISGSGSDTLYADSVKGRFTISRDNSKNTLYLQMNSLRPEDTALYYCTIGGSLSRSSQGTLVTVSSA
notes: Trivalent ISVD construct (two anti-CX3CR1 ISVDs, one anti-albumin ISVD), C-terminal alanine included in the entry; also called 66B02_SO (E1D)-20GS-66B02_SO-20GS-ALB23002-A
B2: A041600026 (VHH)
chain: DVQLVESGGGSVQPGGSLRLSCAASGSIFSSTAMAWYRQAPGKRRDLVAAINTVGVTKYADSVKGRFTISRDNAKNTVYLQMNSLRPEDTALYYCTSDPRRGWDTRYWGQGTLVTVSSGGGGSGGGGSGGGGSGGGGSEVQLVESGGGVVQPGGSLRLSCAASGFTFRSFGMSWVRQAPGKGPEWVSSISGSGSDTLYADSVKGRFTISRDNSKNTLYLQMNSLRPEDTALYYCTIGGSLSRSSQGTLVTVSSGGGGSGGGGSGGGGSGGGGSEVQLVESGGGSVQPGGSLRLSCAASGSIFSSTAMAWYRQAPGKRRDLVAAINTVGVTKYADSVKGRFTISRDNAKNTVYLQMNSLRPEDTALYYCTSDPRRGWDTRYWGQGTLVTVSSA
notes: Trivalent ISVD construct; also called 66B02_SO (E1D)-20GS-ALB23002-20GS-66B02_SO-A
B3: A041600011 (VHH)
chain: DVQLVESGGGSVQPGGSLRLSCAASGSIFSSTAMAWYRQAPGKRRDLVAAINTVGVTKYADSVKGRFTISRDNAKNTVYLQMNSLRPEDTALYYCTSDPRRGWDTRYWGQGTLVTVSSGGGGSGGGSEVQLVESGGGSVQPGGSLRLSCAASGSIFSSTAMAWYRQAPGKRRDLVAAINTVGVTKYADSVKGRFTISRDNAKNTVYLQMNSLRPEDTALYYCTSDPRRGWDTRYWGQGTLVTVSSGGGGSGGGSEVQLVESGGGVVQPGGSLRLSCAASGFTFRSFGMSWVRQAPGKGPEWVSSISGSGSDTLYADSVKGRFTISRDNSKNTLYLQMNSLRPEDTALYYCTIGGSLSRSSQGTLVTVSSA
notes: Trivalent ISVD construct (two anti-CX3CR1 ISVDs, one anti-albumin ISVD), C-terminal alanine included in the entry; also called 66B02_SO (E1D)-9GS-66B02_SO-9GS-ALB23002-A
B4: A041600040 (VHH)
chain: B3 chain with R171Q, A177V, N179S, V183I, P226A
notes: Trivalent ISVD construct (two anti-CX3CR1 ISVDs, one anti-albumin ISVD), C-terminal alanine included in the entry; also called 66B02_SO (E1D)-9GS-54A12_SO-9GS-ALB23002-A
B5: A041600010 (VHH)
chain: DVQLVESGGGSVQPGGSLRLSCAASGSIFSSTAMAWYRQAPGKRRDLVAAINTVGVTKYADSVKGRFTISRDNAKNTVYLQMNSLRPEDTALYYCTSDPRRGWDTRYWGQGTLVTVSSGGGGSGGGSEVQLVESGGGVVQPGGSLRLSCAASGFTFRSFGMSWVRQAPGKGPEWVSSISGSGSDTLYADSVKGRFTISRDNSKNTLYLQMNSLRPEDTALYYCTIGGSLSRSSQGTLVTVSSGGGGSGGGSEVQLVESGGGSVQPGGSLRLSCAASGSIFSSTAMAWYRQAPGKRRDLVAAINTVGVTKYADSVKGRFTISRDNAKNTVYLQMNSLRPEDTALYYCTSDPRRGWDTRYWGQGTLVTVSSA
notes: Trivalent ISVD construct (two anti-CX3CR1 ISVDs, one anti-albumin ISVD); also called 66B02_SO (E1D)-9GS-ALB23002-9GS-66B02_SO-A
B6: A041600031 (VHH)
chain: B5 chain with R295Q, A301V, N303S, V307I, P350A
notes: Trivalent ISVD construct (two anti-CX3CR1 ISVDs, one anti-albumin ISVD), C-terminal alanine included in the entry; also called 66B02_SO (E1D)-9GS-ALB23002-9GS-54A12_SO-A
B7: 66B02_SO (VHH)
VHH: EVQLVESGGGSVQPGGSLRLSCAASGSIFSSTAMAWYRQAPGKRRDLVAAINTVGVTKYADSVKGRFTISRDNAKNTVYLQMNSLRPEDTALYYCTSDPRRGWDTRYWGQGTLVTVSS
notes: Monovalent anti-CX3CR1 ISVD; The oligomerization and Tagg assays used a 3xFLAG-His6 tagged form made in E. coli
B8: 54A12_SO (VHH)
VHH: B7 VHH with R44Q, A50V, N52S, V56I, P99A
notes: as for B7

The target of one assay is T1, cynomolgus CX3CR1. Put plainly: competition flow cytometry vs soluble huCX3CL1-AF647 on CHO K1 cyCX3CR1 cells, 30 uM HSA. (Flow cytometry measures light scatter and fluorescence of single cells or particles in a stream.)
For B1, the % inhibition – broadly, the drop in the measured response relative to a control, in per cent – turned out to be 104% and the IC50 (as a rule, the concentration that gives 50% inhibition) came to 670 pM.
For B2 the same measures were 104% and 1200 pM.
For B3 the same measures were 111% and 1200 pM.
For B4 the same measures were 117% and 620 pM.
As to B5, the “% inhibition” value was 113% and the IC50 was determined as 2400 pM.
Taken in the same sequence, the figures for B6 were 105% and 1200 pM.

For a further assay, the target named is T2, human CX3CR1. Kind of assay: competition flow cytometry vs huCX3CL1-AF647 (2E-10 M) on CHO K1 human CX3CR1 cells, 30 uM HSA. As for the experimental part: (§1) CHO cells overexpressing human or cyno CX3CR1 were generated using techniques known in the art. Cells were harvested and resuspended in assay buffer (PBS, 2% FBS, 0.05% NaN3). The cells were seeded in 384-well Bio-One V-bottom plates (Greiner, Cat. No. 781280), with a total of 2E04 cells seeded per well. After washing, ISVD proteins (starting from 250 nM, 3-fold dilution, 11 points, in assay buffer) were premixed with 30 μM HSA (Sigma-Aldrich, Cat. No. A8763) and human CX3CL1 labelled with AF647 (R&D Systems, Cat. No. 365-FR; labelled in house) at a final concentration of 2E-10 M (˜EC30) and added to the cells for 4 hours at 4° C. Plates were washed 3 times and cells were resuspended in PI (Miltenyi Biotec, Cat. No. 130-093-233, 1000-fold diluted in assay buffer). Cell suspensions were analysed with iQue Screener PLUS or iQue 3(Intellicyt). The IC50s were estimated by dose response modelling. Curves were fit using 4 parameter logistic regression in GraphPad (GraphPad Software Inc.).
In turn, B7 had an IC50 of 480 pM.
Still for that read-out and setting: with B8 the figure was 890 pM.

The target in another assay is T1, cynomolgus CX3CR1. Kind of assay: competition flow cytometry vs huCX3CL1-AF647 (2E-10 M) on CHO K1 cyno CX3CR1 cells, 30 uM HSA. As for the experimental part:
as §1
B7 showed an IC50 of 2900 pM.
On the same count and under the same terms, with B8 the figure was 6000 pM.

In a further assay the target is T2, human CX3CR1. Kind of assay: competition flow cytometry vs soluble huCX3CL1-AF647 on CHO K1 huCX3CR1 cells, 30 uM HSA.
Consider B1, for which the “% inhibition” value worked out at 95% and the IC50 turned out to be 1400 pM.
For B2 the same measures were 102% and 1100 pM.
For B3 the same measures were 94% and 660 pM.
Taken in the same sequence, the figures for B4 were 101% and 990 pM.
Take B5: the “% inhibition” value was found to be 94% and the IC50 amounted to 3800 pM.
Taken in the same sequence, the figures for B6 were 96% and 2100 pM.

In a further assay the target is T2, human CX3CR1. Put plainly: flow cytometry on CHO K1 huCX3CR1 cells, 30 uM HSA. The method, then: (§2) CHO cells overexpressing human or cynomolgus CX3CR1 were generated using techniques known in the art. Cells were harvested and resuspended in assay buffer (PBS, 2% FBS, 0.05% NaN3) and seeded separately in 384-well Bio-One V-bottom plates (Greiner, Cat. No. 781280), with a total of 2E04 cells seeded per well. After washing, serial dilutions of multivalent ISVD construct (starting from 250 nM, 3-fold dilution, 11 points, diluted in assay buffer), were added and incubated for 4 hours at 4° C. Binding was performed in the presence of 30 uM HSA (Sigma-Aldrich, Cat. No. A8763). Plates were then washed 3 times and cells were incubated with an anti-VHH mouse antibody (3300-fold diluted in assay buffer) for 30 minutes at 4′° C. […] Plates were finally washed 3 times and cells were resuspended in PI (Miltenyi Biotec, Cat. No. 130-093-233, 1000-fold diluted in assay buffer). Cell suspensions were analyzed with iQue Screener PLUS (Intellicyt). EC50s were estimated by dose response modelling. Curves were fit using 4 parameter logistic regression in GraphPad (GraphPad Software Inc.). A purified anti-human CX3CR1 antibody [K0124E1] (BioLegend, Cat. No. 355701/355702) was used as positive control to detect CX3CR1 expression on the cell surface.
B1: the EC50 (commonly the concentration that produces a half-maximal response) turned out to be 130 pM and the top is 40000.
Turning to B2, it took 290 pM to reach a half-maximal effect (EC50) and the top was determined as 35600.
B3: a half-maximal effect (EC50) was put at 79 pM and the top came out at 44200.
For B4 the same measures were 100 pM and 42200.
For B5 the same measures were 410 pM and 22800.
Taken in the same sequence, the figures for B6 were 300 pM and 31300.

Another assay deals with T1, cynomolgus CX3CR1. Kind of assay: flow cytometry on CHO K1 cyCX3CR1 cells, 30 uM HSA. The method, then:
as §2
The molecule B1 registered an EC50 of 120 pM and a top of 373000.
Taken in the same sequence, the figures for B2 were 250 pM and 290000.
In turn, B3 gave an EC50 of 110 pM and a top of 331000.
On to B4, for which the EC50 came out at 140 pM and the top turned out to be 363000.
Taken in the same sequence, the figures for B5 were 460 pM and 214000.
For B6 the same measures were 320 pM and 300000.
